Laboratory results reported in the MegaScale stability set (Tsuboyama et al. 2023).

B1: 5KPH (parent)
chain: EEKRQVKQVAKEKLLEQSPNSKVQVRRVQKQGNTIRVELELRTNGKKENYTVEVERQGNTWTVKRITRT

Variants of: B1
Experiment: folding stability dG (cDNA display proteolysis); higher = more stable
Details: PBS, room temperature

Variant	folding stability dG [kcal/mol]
EEKRQVKQVAKEKLLEQSPNSKVQVRRVQKQPNTIRVELELRTNGKKENYTVEVERQGNTWTVKRITRT [G32P]	2.45
EEKRQVKQVAKEKLLEQSPNSKVQVRRVQKQWNTIRVELELRTNGKKENYTVEVERQGNTWTVKRITRT [G32W]	3.21
EEKRQVKQVAKEKLLEQSPNSKVQVRRVQKQENTIRVELELRTNGKKENYTVEVERQGNTWTVKRITRT [G32E]	3.1
EEKRQVKQVAKEKLLEQSPNSKVQVRRVQKQHNTIRVELELRTNGKKENYTVEVERQGNTWTVKRITRT [G32H]	3.14
EEKRQVKQVAKEKLLEQSPNSKVQVRRVQKQNNTIRVELELRTNGKKENYTVEVERQGNTWTVKRITRT [G32N]	3.26
EEKRQVKQVAKEKLLEQSPNSKVQVRRVQKQLNTIRVELELRTNGKKENYTVEVERQGNTWTVKRITRT [G32L]	3.09
EEKRQVKQVAKEKLLEQSPNSKVQVRRVQKQINTIRVELELRTNGKKENYTVEVERQGNTWTVKRITRT [G32I]	2.67
EEKRQVKQVAKEKLLEQSPNSKVQVRRVQKQVNTIRVELELRTNGKKENYTVEVERQGNTWTVKRITRT [G32V]	2.74
EEKRQVKQVAKEKLLEQSPNSKVQVRRVQKQSNTIRVELELRTNGKKENYTVEVERQGNTWTVKRITRT [G32S]	2.97
EEKRQVKQVAKEKLLEQSPNSKVQVRRVQKQDNTIRVELELRTNGKKENYTVEVERQGNTWTVKRITRT [G32D]	3.3
EEKRQVKQVAKEKLLEQSPNSKVQVRRVQKQYNTIRVELELRTNGKKENYTVEVERQGNTWTVKRITRT [G32Y]	3.13
EEKRQVKQVAKEKLLEQSPNSKVQVRRVQKQTNTIRVELELRTNGKKENYTVEVERQGNTWTVKRITRT [G32T]	2.6
EEKRQVKQVAKEKLLEQSPNSKVQVRRVQKQRNTIRVELELRTNGKKENYTVEVERQGNTWTVKRITRT [G32R]	3.03
EEKRQVKQVAKEKLLEQSPNSKVQVRRVQKQFNTIRVELELRTNGKKENYTVEVERQGNTWTVKRITRT [G32F]	3.33
EEKRQVKQVAKEKLLEQSPNSKVQVRRVQKQQNTIRVELELRTNGKKENYTVEVERQGNTWTVKRITRT [G32Q]	3.04
EEKRQVKQVAKEKLLEQSPNSKVQVRRVQKQMNTIRVELELRTNGKKENYTVEVERQGNTWTVKRITRT [G32M]	2.99
EEKRQVKQVAKEKLLEQSPNSKVQVRRVQKQKNTIRVELELRTNGKKENYTVEVERQGNTWTVKRITRT [G32K]	3.11
EEKRQVKQVAKEKLLEQSPNSKVQVRRVQKQGNTIAVELELRTNGKKENYTVEVERQGNTWTVKRITRT [R36A]	3.64
EEKRQVKQVAKEKLLEQSPNSKVQVRRVQKQGNTIGVELELRTNGKKENYTVEVERQGNTWTVKRITRT [R36G]	2.54
EEKRQVKQVAKEKLLEQSPNSKVQVRRVQKQGNTICVELELRTNGKKENYTVEVERQGNTWTVKRITRT [R36C]	3.57
EEKRQVKQVAKEKLLEQSPNSKVQVRRVQKQGNTIDVELELRTNGKKENYTVEVERQGNTWTVKRITRT [R36D]	2.45
EEKRQVKQVAKEKLLEQSPNSKVQVRRVQKQGNTIFVELELRTNGKKENYTVEVERQGNTWTVKRITRT [R36F]	4.35
EEKRQVKQVAKEKLLEQSPNSKVQVRRVQKQGNTIEVELELRTNGKKENYTVEVERQGNTWTVKRITRT [R36E]	3.54
EEKRQVKQVAKEKLLEQSPNSKVQVRRVQKQGNTFRVELELRTNGKKENYTVEVERQGNTWTVKRITRT [I35F]	4.81
EEKRQVKQVAKEKLLEQSPNSKVQVRRVQKQGNTCRVELELRTNGKKENYTVEVERQGNTWTVKRITRT [I35C]	3.39
EEKRQVKQVAKEKLLEQSPNSKVQVRRVQKQGNTLRVELELRTNGKKENYTVEVERQGNTWTVKRITRT [I35L]	3.71

Variant	folding stability dG [kcal/mol]
EEKRQVKQVAKEKLLEQSPNSKVQVRRVQKQGNTVRVELELRTNGKKENYTVEVERQGNTWTVKRITRT [I35V]	3.81
EEKRQVKQVAKEKLLEQSPNSKVQVRRVQKQGNTHRVELELRTNGKKENYTVEVERQGNTWTVKRITRT [I35H]	4.15
EEKRQVKQVAKEKLLEQSPNSKVQVRRVQKQGNTPRVELELRTNGKKENYTVEVERQGNTWTVKRITRT [I35P]	0.813
EEKRQVKQVAKEKLLEQSPNSKVQVRRVQKQGNTTRVELELRTNGKKENYTVEVERQGNTWTVKRITRT [I35T]	3.82
EEKRQVKQVAKEKLLEQSPNSKVQVRRVQKQGNTDRVELELRTNGKKENYTVEVERQGNTWTVKRITRT [I35D]	1.2
EEKRQVKQVAKEKLLEQSPNSKVQVRRVQKQGNTERVELELRTNGKKENYTVEVERQGNTWTVKRITRT [I35E]	1.93
EEKRQVKQVAKEKLLEQSPNSKVQVRRVQKQGNTMRVELELRTNGKKENYTVEVERQGNTWTVKRITRT [I35M]	4.13
EEKRQVKQVAKEKLLEQSPNSKVQVRRVQKQGNTNRVELELRTNGKKENYTVEVERQGNTWTVKRITRT [I35N]	2.81
EEKRQVKQVAKEKLLEQSPNSKVQVRRVQKQGNTARVELELRTNGKKENYTVEVERQGNTWTVKRITRT [I35A]	3.73
EEKRQVKQVAKEKLLEQSPNSKVQVRRVQKQGNTQRVELELRTNGKKENYTVEVERQGNTWTVKRITRT [I35Q]	2.79
EEKRQVKQVAKEKLLEQSPNSKVQVRRVQKQGNTRRVELELRTNGKKENYTVEVERQGNTWTVKRITRT [I35R]	2.6
EEKRQVKQVAKEKLLEQSPNSKVQVRRVQKQGNTSRVELELRTNGKKENYTVEVERQGNTWTVKRITRT [I35S]	3.37
EEKRQVKQVAKEKLLEQSPNSKVQVRRVQKQGNTKRVELELRTNGKKENYTVEVERQGNTWTVKRITRT [I35K]	1.48
EEKRQVKQVAKEKLLEQSPNSKVQVRRVQKQGNTGRVELELRTNGKKENYTVEVERQGNTWTVKRITRT [I35G]	2.57
EEKRQVKQVAKEKLLEQSPNSKVQVRRVQKQGNHIRVELELRTNGKKENYTVEVERQGNTWTVKRITRT [T34H]	3.57
EEKRQVKQVAKEKLLEQSPNSKVQVRRVQKQGNEIRVELELRTNGKKENYTVEVERQGNTWTVKRITRT [T34E]	2.99
EEKRQVKQVAKEKLLEQSPNSKVQVRRVQKQGNAIRVELELRTNGKKENYTVEVERQGNTWTVKRITRT [T34A]	3.62
EEKRQVKQVAKEKLLEQSPNSKVQVRRVQKQGNMIRVELELRTNGKKENYTVEVERQGNTWTVKRITRT [T34M]	3.85
EEKRQVKQVAKEKLLEQSPNSKVQVRRVQKQGNQIRVELELRTNGKKENYTVEVERQGNTWTVKRITRT [T34Q]	3.38
EEKRQVKQVAKEKLLEQSPNSKVQVRRVQKQGNIIRVELELRTNGKKENYTVEVERQGNTWTVKRITRT [T34I]	3.97
EEKRQVKQVAKEKLLEQSPNSKVQVRRVQKQGNYIRVELELRTNGKKENYTVEVERQGNTWTVKRITRT [T34Y]	3.92
EEKRQVKQVAKEKLLEQSPNSKVQVRRVQKQGNSIRVELELRTNGKKENYTVEVERQGNTWTVKRITRT [T34S]	3.59
EEKRQVKQVAKEKLLEQSPNSKVQVRRVQKQGNPIRVELELRTNGKKENYTVEVERQGNTWTVKRITRT [T34P]	2.41
EEKRQVKQVAKEKLLEQSPNSKVQVRRVQKQGNCIRVELELRTNGKKENYTVEVERQGNTWTVKRITRT [T34C]	3.48
EEKRQVKQVAKEKLLEQSPNSKVQVRRVQKQGNNIRVELELRTNGKKENYTVEVERQGNTWTVKRITRT [T34N]	3.44
EEKRQVKQVAKEKLLEQSPNSKVQVRRVQKQGNWIRVELELRTNGKKENYTVEVERQGNTWTVKRITRT [T34W]	3.65

Variant	folding stability dG [kcal/mol]
EEKRQVKQVAKEKLLEQSPNSKVQVRRVQKQGNLIRVELELRTNGKKENYTVEVERQGNTWTVKRITRT [T34L]	3.96
EEKRQVKQVAKEKLLEQSPNSKVQVRRVQKQGNGIRVELELRTNGKKENYTVEVERQGNTWTVKRITRT [T34G]	3.44
EEKRQVKQVAKEKLLEQSPNSKVQVRRVQKQGNKIRVELELRTNGKKENYTVEVERQGNTWTVKRITRT [T34K]	3.4
EEKRQVKQVAKEKLLEQSPNSKVQVRRVQKQGNRIRVELELRTNGKKENYTVEVERQGNTWTVKRITRT [T34R]	3.63
EEKRQVKQVAKEKLLEQSPNSKVQVRRVQKQGNDIRVELELRTNGKKENYTVEVERQGNTWTVKRITRT [T34D]	2.93
EEKRQVKQVAKEKLLEQSPNSKVQVRRVQKQGNVIRVELELRTNGKKENYTVEVERQGNTWTVKRITRT [T34V]	4.08
EEKRQVKQVAKEKLLEQSPNSKVQVRRVQKQGNFIRVELELRTNGKKENYTVEVERQGNTWTVKRITRT [T34F]	3.81
EEKRQVKQVAKEKLLEQSPNSKVQVRRVQKQGLTIRVELELRTNGKKENYTVEVERQGNTWTVKRITRT [N33L]	3.58
EEKRQVKQVAKEKLLEQSPNSKVQVRRVQKQGSTIRVELELRTNGKKENYTVEVERQGNTWTVKRITRT [N33S]	3.88
EEKRQVKQVAKEKLLEQSPNSKVQVRRVQKQGETIRVELELRTNGKKENYTVEVERQGNTWTVKRITRT [N33E]	3.68
EEKRQVKQVAKEKLLEQSPNSKVQVRRVQKQGPTIRVELELRTNGKKENYTVEVERQGNTWTVKRITRT [N33P]	3.55
EEKRQVKQVAKEKLLEQSPNSKVQVRRVQKQGMTIRVELELRTNGKKENYTVEVERQGNTWTVKRITRT [N33M]	3.74
EEKRQVKQVAKEKLLEQSPNSKVQVRRVQKQGQTIRVELELRTNGKKENYTVEVERQGNTWTVKRITRT [N33Q]	3.71
EEKRQVKQVAKEKLLEQSPNSKVQVRRVQKQGHTIRVELELRTNGKKENYTVEVERQGNTWTVKRITRT [N33H]	3.53
EEKRQVKQVAKEKLLEQSPNSKVQVRRVQKQGITIRVELELRTNGKKENYTVEVERQGNTWTVKRITRT [N33I]	3.38
EEKRQVKQVAKEKLLEQSPNSKVQVRRVQKQGFTIRVELELRTNGKKENYTVEVERQGNTWTVKRITRT [N33F]	3.67
EEKRQVKQVAKEKLLEQSPNSKVQVRRVQKQGVTIRVELELRTNGKKENYTVEVERQGNTWTVKRITRT [N33V]	3.4
EEKRQVKQVAKEKLLEQSPNSKVQVRRVQKQGDTIRVELELRTNGKKENYTVEVERQGNTWTVKRITRT [N33D]	3.9
EEKRQVKQVAKEKLLEQSPNSKVQVRRVQKQGYTIRVELELRTNGKKENYTVEVERQGNTWTVKRITRT [N33Y]	3.5
EEKRQVKQVAKEKLLEQSPNSKVQVRRVQKQGTTIRVELELRTNGKKENYTVEVERQGNTWTVKRITRT [N33T]	3.82
EEKRQVKQVAKEKLLEQSPNSKVQVRRVQKQGKTIRVELELRTNGKKENYTVEVERQGNTWTVKRITRT [N33K]	3.75
EEKRQVKQVAKEKLLEQSPNSKVQVRRVQKQGWTIRVELELRTNGKKENYTVEVERQGNTWTVKRITRT [N33W]	3.36
EEKRQVKQVAKEKLLEQSPNSKVQVRRVQKQGGTIRVELELRTNGKKENYTVEVERQGNTWTVKRITRT [N33G]	3.58
EEKRQVKQVAKEKLLEQSPNSKVQVRRVQKQGCTIRVELELRTNGKKENYTVEVERQGNTWTVKRITRT [N33C]	3.22
EEKRQVKQVAKEKLLEQSPNSKVQVRRVQKQGATIRVELELRTNGKKENYTVEVERQGNTWTVKRITRT [N33A]	3.79
EEKRQVKQVAKEKLLEQSPNSKVQVRRVQKQGRTIRVELELRTNGKKENYTVEVERQGNTWTVKRITRT [N33R]	3.74
